Measurements from the nanobody polyreactivity screen of Harvey et al. (2022).

assay: yeast display, Sf9 membrane polyspecificity reagent, FACS + sequencing; frameworks hold sequencing errors
How it was run: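 Nanobodies from a synthetic yeast display library (Saccharomyces cerevisiae BJ5465), induced 36–48 hours with galactose, were stained 1 hour at 4 °C with 10% biotinylated, detergent-solubilized Sf9 membrane reagent, enriched on streptavidin microbeads, then FACS-sorted. Anti-HA (expression) and streptavidin (reagent binding) fluorescence set low and high (top ~1%) gates. Polyreactivity labels come from the gate of origin. Genes were colony-PCR amplified, MiSeq 2 × 250 sequenced and filtered by CDR length.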

Sequence | polyreactivity (PSR sort gate)
QVQRVESGGGLVQAGASLRLSCAASGRTFRSYTMGWYRQAPGKERELVATISGSGSTNYADSVKGRFTISRDNAKITVYLQMNSLKPEDTAVYYCAADVSLSVFKLDYWGQGTQVTVSS | low polyreactivity
QVQRVESGGGLVQAGCSLLLSCASSGNIFTRNAMGGYRHAPGKEREWVAAISTSGGRTYYADSVKGRFTISRDNAKNTVYLQMYSLKPEDTAVYYCAADYLSGTELYYWGQGTQVTVSS | high polyreactivity
QVQRVESGGGLVQAGGRLRLSFAAAGIIFKVNAMGWYRQAPGKERELVPAISWSGSSTYYADSVKGRFTISRDNAKNTVYLQMNSLKPEDTAVYYCGTRWFAVHMYWGQGTQVTVSS | high polyreactivity
QVQRVESGGGLVQAGGSLLLSCAASGRTFRPYTMGWYRQAPGTERELVARITSGGSTNYADSVKGSFTISRDNAKNTVYLQMNSLKPEDTAVYYCNKPGDRHRLDEDYWGQGTQVTVSS | low polyreactivity
QVQRVESGGGLVQAGGSLLLSCAASGRTIRHNAMGWYRPAPGKERELVAAISRSGGSTYYADSVKGRFTISRDKAKNTVYLLMNSLKPEDTAVYYCAAGYHGYDWGQGTQVTVSS | high polyreactivity
QVQRVESGGGLVQAGGSLRLRCAASGRTFMTNAMGWYRQAPGTERELVAAISSGASTNYADSVKGRFTISRDNAKNTVYLQMNSLNPEDTAVYYCGAQLTDYQSKTLSYDYWGQGTQVTVSS | low polyreactivity
QVQRVESGGGLVQAGGSLRLRCAASGSIFYQYALGWYRQARGKEREWVAAISRSGGRTYYADSVKGRFTISRDNAKNTVYLQMNSLKPEDTAVYYCAAGTSWPWYQRDYWGQGTQVTVSS | low polyreactivity
QVQRVESGGGLVQAGGSLRLRCAASGSILYHNTMGWYIQAPGKEREFVASISANGGSTYYADSVKGRFTISRDNAKNTVYLQMNSLKPEDTAVYYCAARVADYPLVGGSSYNRMEYWGQGTQVTVSS | low polyreactivity
QVQRVESGGGLVQAGGSLRLSCAASGFIFARNAMGWNRPAPGKERELVAAINQSGGITRYADSVKGRFTISRDNAKNTVYLQMNSLKPEDTAVYYCATPLYVRYDYWGQGSQVTVSS | high polyreactivity
QVQRVESGGGLVQAGGSLRLSCAASGFTFYRYAMGWYRQAPGKEREFVAVINIRGSTTYYADSVKGRFTISRDNAKNTVYLQMNSLKPEDTAVYYCARRYRGPYYSLPRRKEFDYWGQGTQVTVSS | high polyreactivity
QVQRVESGGGLVQAGGSLRLSCAASGFTLDPYAMGWYRQAPGKEREFVAAIRLSGSSTYYADSVKGRFTISRDNAKNTVYLQMNSLKPEDTAVYYCAADGISHWLYRYDYWGQGTQVTVSS | low polyreactivity
QVQRVESGGGLVQAGGSLRLSCAASGLIFYRYVMGWYRQAPGKETELVAAISGNGASTYYADSVKGRFTISRDNAKNTVYLQMHSLKPEDTAVYYCNADVYVSSKTHSSSPQWWGYDYWGQGTQVTVSS | low polyreactivity
QVQRVESGGGLVQAGGSLRLSCAASGRIFNWYVMGWKRQAPGKERELVAAINSGGITKYADSVKGRFTISRDNAKNTVYLQMNSLKPEDSAVYYCAAYYRRYDYDYWGQGTQVTVSS | high polyreactivity
QVQRVESGGGLVQAGGSLRLSCAASGRTFSSYDLGWYRQAPGKERELVAAITSGGSTYYADSVKGRFTISRDNAKNTVYLQMNSLKPDDTAVYYCAADIYWWCSKDYDYWGQGTQVTVSS | high polyreactivity
QVQRVESGGGLVQAGGSLRLSCAASGRTFTYYAMGWYRQAPGKERELVAAISSRGGSTYYADSVKGRFTISRDNAKNTVYLQMNSLKPEDTAVYYCAAVLRFTRASRWPDFDYWGQGTQVTVSS | high polyreactivity
QVQRVESGGGLVQAGGSLRLSCAASGSIFASNAMGWYRQAPGKERELVADISGTTGSTYYADSVKGRFTISRDNAKNTVYLQMNSLKPEDTAVYYCAADLVWVSTSYYYWGQGTQVTVSS | low polyreactivity
QVQRVESGGGLVQAGGSLRLSCAASGSIFGPNTIGWSRQAPGKERDLVAAITRSGGSTYYADSVKGRFTISRDNAKNTVYLQMNSLKPEDTAVYYCAVGDGFEYDWGQGTQVTVSS | low polyreactivity
QVQRVESGGGLVQAGGSLRLSCAASGSIFKYYTMGLYRPAPGKERELVAYISSGGSTKYADSVKGRFTNSRDNAKNTVYLQMNSLKPEDTAVYYCAKRYYYFYPDYDFLGQGTQVTVSS | high polyreactivity
QVQRVESGGGLVQAGGSLRLSCAASGSIFRTYAMRWYRQAPGTERELVAAITSRGSSTYYADSVKGRFTISRDNAKNTVYLQMNSLKPEDTAVYSCPADYRTSYKGVLFSMYYWGQGTQVTVSS | high polyreactivity
QVQRVESGGGLVQAGGSLRLSCAASGSIFYRNVMGWYRPAPGKERELVAAISSGTSTYYADSVKGRFTISRDNAKNTVYLQMTSLKPEDPAVYYCAAEGPHYYGQRWYYGVDYWGQGTQVTVSS | low polyreactivity
QVQRVESGGGLVQAGGSLRLSCAASGSNFDKNPMGWYRQAPGKEREVVAAISRSGGSTNYADSVKGRFTISRDNAKTTDFLLMYSVKPEDTAVYYFAAQSRYWTYDSWGQGTQVNVSS | high polyreactivity
QVQRVESGGGLVQAGGSLRLSCAASGSTFLVNGMGWNRPAPGKERELVASITRDSSTYADSVKGRFTISRDNAKNTVYLQMNSLKPEDTAVYYCAATSRRRWSQQQGYGYYYWGQGTQVTVSS | high polyreactivity
QVQRVESGGGLVQAGGSLRLSCAASGYILPRYAMGWYIQAPGKERELVAAITSGGITSYADSVKGRFTISRDNAKNTVYLQMNSLKPEDTAVYYCAADWYVIYDYWGQGTQVTVSS | low polyreactivity
QVQRVESGGGLVQAGGSLRLSCAASGYTFEAYAMGWYRQAPGKERELVAAITINGGSTYYADSVKGRFTISRDNAKNTVYLQMNSLKPEDTAVYYCAADLFHRAGWYFAYGHWGLGTQVTVSS | low polyreactivity
QVQRVESGGGLVQAGGSLRLSCAASGYTFYFYDMGWYRQAPGKERELVAAITSSGGSTYYADSVKGRFTISRDNAKNTVYLQMNSLKPEDTAVYYCNALITYSSDYWGQGTQVTVSS | low polyreactivity
QVQRVESGGGLVQAGGSLRLSCAASGYTLGGYAMGWYRQAPGKERELVAAISSSGTSTYYADSVKGRFTISRDNAKNTVYLQMNSLKPEDTAVYYCNAYYLTYSAGDYWGQGTQVTVSS | low polyreactivity
QVQRVESGGGLVQAGGSLRLSCAASRITFSVNALRWYRHAPGKDRELVASISSGGSTNYADSVQGGFTISRDNAKNTVDLQMNSLKQEDTAVYYCNADVGFGSMDYCGQGTQVTVSS | low polyreactivity
QVQRVESGGGLVQAGGSLRLSCAASRITFTVNAMGWYRQAPGKERELVAAISWSGGSTYYADSVKGRFTISRDIAKNTVYLQMNSLKPEDTAVYYCNAVLYRFAYNYWGQGTQVTVSS | low polyreactivity
QVQRVESGGGLVQAGGSLRLSCAATGFTSGDYAMGWYRQAPGKERELVAAIDSDGSTNYADSVKGRFTISRDNAKNTVYLQMNSLKPEDTADYYCNAKRYGFFYWQGDYWGQGTQVTVSS | low polyreactivity
QVQRVESGGGLVQAGGSLRLSCDASGFTFVPYAMGWYRQAPGKERELVAAISWRRGSTYYADSVKGRFTISRDNAKNTVYLQMNSLKPEDTAVYYCARKGYHYSETSAIFALYDYWGQGTQVTVSS | high polyreactivity
